Test results as given in US10568950B1, “Peptides, combination of peptides and scaffolds for use in immunotherapeutic treatment of various cancers” (Immatics Biotechnologies GmbH, priority 2015, dated 2020).

Target: HLA-A*02 (Homo sapiens, UniProt P04439, D140Y/D185E/D98H/E176V/E277Q/G131W/G231S/I119V/I121R/I166T/I218V/N151K/N90K/P208A/P217A/Q86G/Q94H/R138H/R169H)
Experiment: MHC binding assay: UV-ligand exchange, beta2m ELISA (peptide exchange yield)
Settings: binding to HLA-A*02, β2m ELISA
Excerpt: Candidate peptides for T cell based therapies according to the present invention were further tested for their MHC binding capacity (affinity). The individual peptide-MHC complexes were produced by UV-ligand exchange, where a UV-sensitive peptide is cleaved upon UV-irradiation, and exchanged with the peptide of interest as analyzed. Only peptide candidates that can effectively bind and stabilize the peptide-receptive MHC molecules prevent dissociation of the MHC complexes. To determine the yield of the exchange reaction, an ELISA was performed based on the detection of the light chain (β2m) of stabilized MHC complexes. The assay was performed as generally described in Rodenko et al. (Rodenko et al., 2006).
96 well MAXISorp plates (NUNC) were coated over night with 2 ug/ml streptavidin in PBS at room temperature, washed 4× and blocked for 1 h at 37° C. in 2% BSA containing blocking buffer. […] Peptide-MHC monomers of the UV-exchange reaction were diluted 100 fold in blocking buffer. Samples were incubated for 1 h at 37° C., washed four times, incubated with 2 ug/ml HRP conjugated anti-βm for 1 h at 37° C., washed again and detected with TMB solution that is stopped with […]. Absorption was measured at 450 nm. Candidate peptides that show a high exchange yield (preferably higher than 50%, most preferred higher than 75%) are generally preferred for a generation and production of antibodies or fragments thereof, and/or T cell receptors or fragments thereof, as they show sufficient avidity to the MHC molecules and prevent dissociation of the MHC complexes.

Row | Peptide exchange (MHC class I binding score, peptide exchange yield) | Substance
1 | + (<20% = +) | 23 (AQTVVVIKA; listed as Homo sapiens) [compound 23]
2 | +++ (50%-75% = +++) | 24 (FLWNGEDSAL; listed as Homo sapiens) [compound 24]
3 | ++ (20%-49% = ++) | 25 (IQADDFRTL; listed as Homo sapiens) [compound 25]
4 | +++ (50%-75% = +++) | 26 (KVDGVVIQL; listed as Homo sapiens) [compound 26]
5 | +++ (50%-75% = +++) | 27 (KVFGDLDQV; listed as Homo sapiens) [compound 27]
6 | +++ (50%-75% = +++) | 28 (TLYSMDLMKV; listed as Homo sapiens) [compound 28]
7 | +++ (50%-75% = +++) | 29 (TLCNKTFTA; listed as Homo sapiens) [compound 29]
8 | ++++ (>= 75% = ++++) | 31 (ALSDETKNNWEV; listed as Homo sapiens) [compound 31]
9 | +++ (50%-75% = +++) | 32 (ILADEAFFSV; listed as Homo sapiens) [compound 32]
10 | +++ (50%-75% = +++) | 33 (LLLPLLPPLSPSLG; listed as Homo sapiens) [compound 33]
11 | ++ (20%-49% = ++) | 35 (YVLPKLYVKL; listed as Homo sapiens) [compound 35]
12 | ++++ (>= 75% = ++++) | 36 (KLYGIEIEV; listed as Homo sapiens) [compound 36]

The remaining lines, values behind:

Row | Substance | Peptide exchange (MHC class I binding score, peptide exchange yield)
13 | 1 (PLWGKVFYL; listed as Homo sapiens) [compound 1] | ++ (20%-49% = ++)
14 | 3 (TLLGKQVTL; listed as Homo sapiens) [compound 3] | +++ (50%-75% = +++)
15 | 4 (ELAEIVFKV; listed as Homo sapiens) [compound 4] | +++ (50%-75% = +++)
16 | 5 (SLFGQEVYC; listed as Homo sapiens) [compound 5] | +++ (50%-75% = +++)
17 | 6 (FLDPAQRDL; listed as Homo sapiens) [compound 6] | +++ (50%-75% = +++)
18 | 10 (KTLDVFNIIL; listed as Homo sapiens) [compound 10] | ++ (20%-49% = ++)
19 | 11 (GVLKVFLENV; listed as Homo sapiens) [compound 11] | ++ (20%-49% = ++)
20 | 12 (GLIYEETRGV; listed as Homo sapiens) [compound 12] | ++ (20%-49% = ++)
21 | 13 (VLRDNIQGI; listed as Homo sapiens) [compound 13] | +++ (50%-75% = +++)
22 | 14 (LLDHLSFINKI; listed as Homo sapiens) [compound 14] | ++ (20%-49% = ++)
23 | 16 (HLYNNEEQV; listed as Homo sapiens) [compound 16] | ++ (20%-49% = ++)
24 | 18 (YVLNEEDLQKV; listed as Homo sapiens) [compound 18] | +++ (50%-75% = +++)
25 | 19 (TLLPTVLTL; listed as Homo sapiens) [compound 19] | +++ (50%-75% = +++)
26 | 20 (ALDGHLYAI; listed as Homo sapiens) [compound 20] | +++ (50%-75% = +++)
27 | 21 (SLYHRVLLY; listed as Homo sapiens) [compound 21] | ++++ (>= 75% = ++++)
28 | 22 (MLSDLTLQL; listed as Homo sapiens) [compound 22] | ++++ (>= 75% = ++++)
